T1: 6xHis-WRKY40 (Arabidopsis thaliana, UniProt Q9SAH7 1-302)
T1 sequence: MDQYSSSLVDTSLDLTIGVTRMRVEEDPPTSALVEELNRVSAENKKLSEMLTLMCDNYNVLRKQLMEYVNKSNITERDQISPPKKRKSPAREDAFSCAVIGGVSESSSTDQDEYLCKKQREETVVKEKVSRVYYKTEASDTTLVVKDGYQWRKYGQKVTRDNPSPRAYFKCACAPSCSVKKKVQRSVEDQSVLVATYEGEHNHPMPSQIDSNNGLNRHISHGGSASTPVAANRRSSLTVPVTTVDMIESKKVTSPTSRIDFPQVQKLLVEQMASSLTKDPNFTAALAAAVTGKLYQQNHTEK


Legend:
Assay in all cases: EMSA; 25 mM Hepes pH 8.0, 40 mM KCl, 5 mM MgCl2, 1 mM DTT, 1 mM EDTA, 8% glycerol; 50 ng protein, 20 fmol probe; 30 min at 28 C; native PAGE
[1] = target: T1, 6xHis-WRKY40; details: protein: recombinant, tags: N-terminal Trx, HRV 3C site (pET48b), label: 5' biotin on each strand, blunt
[2] = target: 6xHis-WRKY60 (Arabidopsis thaliana, UniProt Q9SK33 1-271); details: protein: recombinant, tags: N-terminal Trx, HRV 3C site (pET48b), label: 5' biotin on each strand, blunt
Sequence of 6xHis-WRKY60 (Q9SK33 whole entry): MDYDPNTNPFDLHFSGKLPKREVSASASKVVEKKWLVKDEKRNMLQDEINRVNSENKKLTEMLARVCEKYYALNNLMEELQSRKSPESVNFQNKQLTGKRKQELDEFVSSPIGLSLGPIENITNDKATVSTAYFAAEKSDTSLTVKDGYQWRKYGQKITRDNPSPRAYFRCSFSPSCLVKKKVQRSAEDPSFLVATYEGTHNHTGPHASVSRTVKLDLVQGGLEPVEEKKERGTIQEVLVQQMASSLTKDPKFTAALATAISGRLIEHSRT

[3] = target: 6xHis-WRKY18 (Arabidopsis thaliana, UniProt Q9C5T4 1-310); details: protein: recombinant, tags: N-terminal Trx, HRV 3C site (pET48b), chain copies: 2, label: 5' biotin on each strand, blunt
Sequence of 6xHis-WRKY18 (Q9C5T4 whole entry): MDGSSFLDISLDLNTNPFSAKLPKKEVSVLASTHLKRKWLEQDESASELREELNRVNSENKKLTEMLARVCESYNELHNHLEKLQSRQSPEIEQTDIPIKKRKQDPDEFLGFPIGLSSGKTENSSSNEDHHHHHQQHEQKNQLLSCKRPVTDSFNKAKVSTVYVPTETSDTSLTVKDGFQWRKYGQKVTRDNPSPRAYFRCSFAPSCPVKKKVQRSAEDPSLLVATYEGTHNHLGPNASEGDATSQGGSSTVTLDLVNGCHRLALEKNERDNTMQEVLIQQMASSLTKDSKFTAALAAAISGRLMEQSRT

| Binder | binding result [1] | binding result [2] | binding result [3] |
| --- | --- | --- | --- |
| ProCRK5-1 (dsDNA) DNA 1: TTGATGTTACTCGTCTAGTTGACCTTGACTTGCAAGATATTGTATTATTTTACAAAAACCAAAATTTGACTGGCTTGGCT DNA 2: AGCCAAGCCAGTCAAATTTTGGTTTTTGTAAAATAATACAATATCTTGCAAGTCAAGGTCAACTAGACGAGTAACATCAA | binds | no binding | binds |
| ProCRK5-1 mW1 (dsDNA) DNA 1: TTGATGTTACTCGTCTAGTTGACCTTGACTTGCAAGATATTGTATTATTTTACAAAAACCAAAATTTAAATGGCTTGGCT DNA 2: AGCCAAGCCATTTAAATTTTGGTTTTTGTAAAATAATACAATATCTTGCAAGTCAAGGTCAACTAGACGAGTAACATCAA | binds | – | binds |

Source: PMC5014153, “Overexpression of an Arabidopsis cysteine-rich receptor-like protein kinase, CRK5, enhances abscisic acid sensitivity and confers drought tolerance”
